Data reported in paper PMC5646249, “Structural Basis of Type 2 Secretion System Engagement between the Inner and Outer Bacterial Membranes” (mBio, 2017).

Target: the molecule itself
Experiment: cryo-EM structure; single-particle cryo-EM of the detergent-solubilised, amphipol-stabilised ~1-MDa XcpQ multimer flash frozen on vitreous ice; Titan Krios, Gatan K2 Summit; 18,000+ particles; 2D class averages and 3D reconstruction under C15 symmetry, 3.6 Å

B1: XcpQ secretin of the Pseudomonas aeruginosa PAO1 type 2 secretion system (natural protein)
chain: ENSGGNAFVPAGNQQEAHWTINLKDADIREFIDQISEITGETFVVDPRVKGQVSVVSKAQLSLSEVYQLFLSVMSTHGFTVVAQGDQARIVPNAEAKTEAGGGQSAPDRLETRVIQVQQSPVSELIPLIRPLVPQYGHLAAVPSANALIISDRSANIARIEDVIRQLDQKGSHDYSVINLRYGWVMDAAEVLNNAMSRGQAKGAAGAQVIADARTNRLIILGPPQARAKLVQLAQSLDTPTARSANTRVIRLRHNDAKTLAETLGQISEGMKNNGGQGGEQTGGGRPSNILIRADESTNALVLLADPDTVNALEDIVRQLDVPRAQVLVEAAIVEISGDIQDAVGVQWAINKGGMGGTKTNFANTGLSIGTLLQSLESNKAPESIPDGAIVGIGSSSFGALVTALSANTKSNLLSTPSLLTLDNQKAEILVGQNVPFQTGSYTTNSEGSSNPFTTVERKDIGVSLKVTPHINDGAALRLEIEQEISALLPNAQQRNNTDLITSKRSIKSTILAENGQVIVIGGLIQDDVSQAESKVPLLGDIPLLGRLFRSTKDTHTKRNLMVFLRPTVVRDSAGLAALSGKKYSDIRVIDGTRGPEGRPSILPTNANQLFDGQAVDLRELMTE
notes: XcpQ, the secretin of the ancestral T2SS of Pseudomonas aeruginosa PAO1; four N domains (N0-N3), secretin domain (Pfam PF00263), S domain; numbers count on: the mature protein; N0 domains not seen and N1 domains poorly resolved in the map, though part of the purified protein; also called XcpQ secretin complex; XcpQ multimer; copies: 15
stoichiometry N: 15
